B1: ADI-34132 (antibody, V domains shown)
VH: QVQLVQSGAEVKKPGSSVKVSCKASGGTFSSYAISWVRQAPGQGLEWMGGIIPIFGTANYAQKFQGRVTITADESTSTAYMELSSLRSEDTAVYYCARGAPNYYGSGGYDDGWFDPWGQGTLVTVSS
VL: DIQLTQSPSSLSASVGDRVTITCRASQSISSYLNWYQQKPGKAPKLLIYAASNLQSGVPSRFSGSGSGTDFTLTISSLQPEDFATYYCQQTLHTPITFGGGTKVEIK
notes: anti-ID IgG
B2: ADI-34137 (antibody, V domains shown)
VH: B1 VH
VL: EIVLTQSPGTLSLSPGERATLSCRASQSVSSSYLAWYQQKPGQAPRLLIYGASSRATGIPDRFSGSGSGTDFTLTISRLEPEDFAVYYCQQFGRFPTFGGGTKVEIK
notes: anti-ID IgG

What was measured:
CTL-62227 = target: T1, CTL-62227; assay: SPR Carterra, yeast anti-ID
T1 construct: also called odronextamab
Experimental: (§1) Kinetic analysis was conducted at 25° C. in an HBSTE running buffer system (Carterra Cat #3630) using a Carterra LSA (Carterra USA, Salt Lake City, UT). The sample compartment was maintained at 20° C. for the duration of each experiment.
(§2) For antibody capture experiments, a goat anti-human Fc antibody (Jackson ImmunoResearch) was covalently coupled to an HC30M sensor chip surface via standard amine coupling (1:1 EDC:NHS) and then blocked with ethanolamine (1.0 M, pH 8.5). Covalent coupling steps were performed in 25 mM MES buffer (Carterra, Cat #3625) plus 0.05% Tween20. The anti-CD3 antibodies (100 nM in running buffer) were flowed over discrete regions of interest on the chip surface for 5 minutes. […] Dissociation of the anti-idiotype antibodies was monitored for 300s. Several blank buffer samples were injected over the entire chip surface at the start of each non-regenerative kinetic cycle. The preceding blank buffer injection was used for blank surface subtraction. At the end of each non-regenerative kinetic cycle, all surfaces were regenerated via two 30s injections of 10 mM glycine, pH 1.7.
(§3) For data processing and fitting, sensorgrams were double reference subtracted with a baseline drift correction of 4 RU. Sensorgrams were y-aligned and baseline corrected, filtered and cropped to include only the association and dissociation steps. Data was fitted to a 1:1 binding model using Carterra Kinetics Data Analysis software version 1.7.1.3055.

CTL-62228 = target: T2, CTL-62228; assay: SPR Carterra, yeast anti-ID
T2 construct: also called glofitamab
Experimental: as §1, §2, §3

CTL-62240 = target: T3, CTL-62240; assay: SPR Carterra, yeast anti-ID
T3 construct: also called ONO-4685
Experimental: as §1, §2, §3

ADI-50024 = target: T4, ADI-50024; assay: SPR Carterra avidity, yeast anti-ID
T4 construct: anti-CD3 antibody made in CHO cells, captured by anti-human Fc
Experimental: as §1, §2, §3

ADI-70326 = target: T5, ADI-70326; assay: SPR Carterra avidity, yeast anti-ID
T5 construct: anti-CD3 antibody made in CHO cells, captured by anti-human Fc
Experimental: as §1, §2, §3

ADI-70327 = target: T6, ADI-70327; assay: SPR Carterra avidity, yeast anti-ID
T6 construct: anti-CD3 antibody made in CHO cells, captured by anti-human Fc
Experimental: as §1, §2, §3

ADI-70330 = target: T7, ADI-70330; assay: SPR Carterra avidity, yeast anti-ID
T7 construct: anti-CD3 antibody made in CHO cells, captured by anti-human Fc
Experimental: as §1, §2, §3

ADI-26906 IgG = target: T8, ADI-26906 IgG; assay: SPR Carterra avidity, yeast anti-ID
T8 construct: anti-CD3 IgG
Experimental: as §1, §2, §3

ADI-67450 = target: T9, ADI-67450; assay: SPR Carterra avidity, yeast anti-ID
T9 construct: anti-CD3 antibody made in CHO cells, captured by anti-human Fc
Experimental: as §1, §2, §3

ADI-67445 = target: T10, ADI-67445; assay: SPR Carterra avidity, yeast anti-ID
T10 construct: anti-CD3 antibody made in CHO cells, captured by anti-human Fc
Experimental: as §1, §2, §3

ADI-67447 = target: T11, ADI-67447; assay: SPR Carterra avidity, yeast anti-ID
T11 construct: anti-CD3 antibody made in CHO cells, captured by anti-human Fc
Experimental: as §1, §2, §3

ADI-26909 = target: T12, ADI-26909; assay: SPR Carterra avidity, yeast anti-ID
T12 construct: anti-CD3 antibody made in CHO cells, captured by anti-human Fc
Experimental: as §1, §2, §3

ADI-26913 IgG = target: T13, ADI-26913 IgG; assay: SPR Carterra avidity, yeast anti-ID
T13 construct: anti-CD3 IgG
Experimental: as §1, §2, §3

ADI-26920 IgG [1] = target: T14, ADI-26920 IgG; assay: SPR Carterra avidity, yeast anti-ID
T14 construct: anti-CD3 IgG
Experimental: as §1, §2, §3

ADI-26921 IgG [2] = target: T15, ADI-26921 IgG; assay: SPR Carterra avidity, yeast anti-ID
T15 construct: anti-CD3 IgG
Experimental: as §1, §2, §3

ADI-26916 IgG = target: T16, ADI-26916 IgG; assay: SPR Carterra avidity, yeast anti-ID
T16 construct: anti-CD3 IgG
Experimental: as §1, §2, §3

ADI-26912 = target: T17, ADI-26912; assay: SPR Carterra avidity, yeast anti-ID
T17 construct: anti-CD3 antibody made in CHO cells, captured by anti-human Fc
Experimental: as §1, §2, §3

ADI-26924 = target: T18, ADI-26924; assay: SPR Carterra avidity, yeast anti-ID
T18 construct: anti-CD3 antibody made in CHO cells, captured by anti-human Fc
Experimental: as §1, §2, §3

ADI-26915 = target: T19, ADI-26915; assay: SPR Carterra avidity, yeast anti-ID
T19 construct: anti-CD3 antibody made in CHO cells, captured by anti-human Fc
Experimental: as §1, §2, §3

ADI-26943 = target: T20, ADI-26943; assay: SPR Carterra avidity, yeast anti-ID
T20 construct: anti-CD3 antibody made in CHO cells, captured by anti-human Fc
Experimental: as §1, §2, §3

ADI-48576 = target: T21, ADI-48576; assay: SPR Carterra avidity, yeast anti-ID
T21 construct: pH-dependent anti-CD3 antibody made in CHO cells
Experimental: as §1, §2, §3

ADI-48587 = target: T22, ADI-48587; assay: SPR Carterra avidity, yeast anti-ID
T22 construct: pH-dependent anti-CD3 antibody made in CHO cells
Experimental: as §1, §2, §3

ADI-48592 = target: T23, ADI-48592; assay: SPR Carterra avidity, yeast anti-ID
T23 construct: pH-dependent anti-CD3 antibody made in CHO cells
Experimental: as §1, §2, §3

ADI-48650 = target: T24, ADI-48650; assay: SPR Carterra avidity, yeast anti-ID
T24 construct: pH-dependent anti-CD3 antibody made in CHO cells
Experimental: as §1, §2, §3

ADI-74965 = target: T25, ADI-74965; assay: SPR Carterra avidity, yeast anti-ID
T25 construct: pH-dependent anti-CD3 antibody made in CHO cells
Experimental: as §1, §2, §3

ADI-74966 = target: T26, ADI-74966; assay: SPR Carterra avidity, yeast anti-ID
T26 construct: pH-dependent anti-CD3 antibody made in CHO cells
Experimental: as §1, §2, §3

ADI-74967 [3] = target: T27, ADI-74967; assay: SPR Carterra avidity, yeast anti-ID
T27 construct: pH-dependent anti-CD3 antibody made in CHO cells
Experimental: as §1, §2, §3

ADI-74968 = target: T28, ADI-74968; assay: SPR Carterra avidity, yeast anti-ID
T28 construct: pH-dependent anti-CD3 antibody made in CHO cells
Experimental: as §1, §2, §3

ADI-76357 = target: T29, ADI-76357; assay: SPR Carterra avidity, yeast anti-ID
T29 construct: anti-CD3 antibody made in CHO cells, captured by anti-human Fc
Experimental: as §1, §2, §3

ADI-76358 = target: T30, ADI-76358; assay: SPR Carterra avidity, yeast anti-ID
T30 construct: anti-CD3 antibody made in CHO cells, captured by anti-human Fc
Experimental: as §1, §2, §3

ADI-76359 [4] = target: T31, ADI-76359; assay: SPR Carterra avidity, yeast anti-ID
T31 construct: anti-CD3 antibody made in CHO cells, captured by anti-human Fc
Experimental: as §1, §2, §3

ADI-76360 = target: T32, ADI-76360; assay: SPR Carterra avidity, yeast anti-ID
T32 construct: anti-CD3 antibody made in CHO cells, captured by anti-human Fc
Experimental: as §1, §2, §3

ADI-76361 = target: T33, ADI-76361; assay: SPR Carterra avidity, yeast anti-ID
T33 construct: anti-CD3 antibody made in CHO cells, captured by anti-human Fc
Experimental: as §1, §2, §3

ADI-76362 = target: T34, ADI-76362; assay: SPR Carterra avidity, yeast anti-ID
T34 construct: anti-CD3 antibody made in CHO cells, captured by anti-human Fc
Experimental: as §1, §2, §3

CTL-62223 = target: T35, CTL-62223; assay: SPR Carterra avidity, yeast anti-ID
T35 construct: also called mosunetuzumab
Experimental: as §1, §2, §3

ADI-22523 IgG = target: T36, ADI-22523 IgG; assay: BLI; tip anti-ID IgG, solution ADI-22523 IgG
T36 construct: anti-CD3 IgG
Experimental: (§4) ForteBio affinity measurements were performed generally as previously described (Estep et al., MAbs. 2013 5(2):270-8). Briefly, ForteBio affinity measurements were performed by loading antibody IgG or Fabs on-line onto AHC sensors. Sensors were equilibrated off-line in assay buffer for 30 minutes and then monitored on-line for 60 seconds for baseline establishment. For avid binding measurement, sensors with loaded antibodies were exposed to IgG or Fab solutions for 3 minutes, afterwards they were transferred to assay buffer for 3 minutes for off-rate measurement. Kinetics data were fit using a 1:1 binding model in the data analysis software provided by ForteBio to obtain equilibrium dissociation constant (KD=koff/kₒₙ) values. In each column, tip-immobilized antibodies are listed first and solution antibodies second.

ADI-26919 [5] = target: T37, ADI-26919; assay: SPR Carterra avidity, yeast anti-ID, *koff limit
T37 construct: anti-CD3 antibody made in CHO cells, captured by anti-human Fc
Experimental: as §1, §2, §3

ADI-26919 [6] = target: T37, ADI-26919; assay: SPR Carterra avidity, yeast anti-ID
Experimental: as §1, §2, §3

ADI-22523 Fab = target: T38, ADI-22523 Fab; assay: BLI; tip anti-ID IgG, solution ADI-22523 Fab
T38 construct: anti-CD3 Fab by papain digestion of the IgG
Experimental: as §4

ADI-26920 IgG [7] = target: T14, ADI-26920 IgG; assay: SPR Carterra avidity, yeast anti-ID, *koff limit
Experimental: as §1, §2, §3

ADI-26921 IgG [8] = target: T15, ADI-26921 IgG; assay: SPR Carterra avidity, yeast anti-ID, *koff limit
Experimental: as §1, §2, §3

ADI-74967 [9] = target: T27, ADI-74967; assay: SPR Carterra avidity, yeast anti-ID, *koff limit
Experimental: as §1, §2, §3

ADI-76359 [10] = target: T31, ADI-76359; assay: SPR Carterra avidity, yeast anti-ID, *koff limit
Experimental: as §1, §2, §3

T18 sequence (VH, as listed by the source, chain 1 of 2): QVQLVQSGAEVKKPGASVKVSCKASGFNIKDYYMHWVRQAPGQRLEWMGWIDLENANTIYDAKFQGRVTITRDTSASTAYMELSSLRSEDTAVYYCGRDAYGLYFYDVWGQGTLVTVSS
T18 sequence (VL, as listed by the source, chain 2 of 2): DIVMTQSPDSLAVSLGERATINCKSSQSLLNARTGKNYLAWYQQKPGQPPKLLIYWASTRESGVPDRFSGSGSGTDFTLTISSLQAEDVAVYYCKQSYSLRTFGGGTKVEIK
T21 sequence (VH, as listed by the source, chain 1 of 2): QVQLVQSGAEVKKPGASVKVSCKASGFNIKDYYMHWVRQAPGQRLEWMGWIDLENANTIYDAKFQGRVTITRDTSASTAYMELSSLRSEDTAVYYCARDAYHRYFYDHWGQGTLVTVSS
T21 sequence (VL, as listed by the source, chain 2 of 2): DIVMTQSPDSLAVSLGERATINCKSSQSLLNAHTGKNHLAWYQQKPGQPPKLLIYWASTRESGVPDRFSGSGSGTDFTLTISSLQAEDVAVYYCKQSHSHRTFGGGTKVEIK
T20 sequence (VH, as listed by the source, chain 1 of 2): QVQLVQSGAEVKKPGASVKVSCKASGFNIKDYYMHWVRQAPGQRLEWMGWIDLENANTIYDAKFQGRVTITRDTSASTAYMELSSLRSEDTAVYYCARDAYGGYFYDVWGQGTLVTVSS
T20 sequence (VL, as listed by the source, chain 2 of 2): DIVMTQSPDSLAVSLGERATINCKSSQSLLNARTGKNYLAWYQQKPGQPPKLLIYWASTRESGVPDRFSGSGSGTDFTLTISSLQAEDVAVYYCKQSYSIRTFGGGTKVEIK
T11 sequence (VH, as listed by the source limits assumed, chain 1 of 2): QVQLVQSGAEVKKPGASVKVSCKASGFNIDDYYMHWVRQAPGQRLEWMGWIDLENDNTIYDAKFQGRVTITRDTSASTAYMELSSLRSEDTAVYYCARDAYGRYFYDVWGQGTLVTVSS
T11 sequence (VL, as listed by the source limits assumed, chain 2 of 2): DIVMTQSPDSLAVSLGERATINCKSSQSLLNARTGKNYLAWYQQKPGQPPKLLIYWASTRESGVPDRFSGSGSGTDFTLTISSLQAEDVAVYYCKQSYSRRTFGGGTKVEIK
T15 sequence (VH, as listed by the source limits assumed, chain 1 of 2): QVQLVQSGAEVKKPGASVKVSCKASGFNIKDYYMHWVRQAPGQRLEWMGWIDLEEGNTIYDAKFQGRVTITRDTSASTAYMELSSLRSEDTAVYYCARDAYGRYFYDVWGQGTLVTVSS
T23 sequence (VH, as listed by the source, chain 1 of 2): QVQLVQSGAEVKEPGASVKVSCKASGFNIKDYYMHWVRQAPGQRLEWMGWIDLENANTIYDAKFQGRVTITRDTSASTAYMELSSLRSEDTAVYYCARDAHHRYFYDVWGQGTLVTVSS
T23 sequence (VL, as listed by the source, chain 2 of 2): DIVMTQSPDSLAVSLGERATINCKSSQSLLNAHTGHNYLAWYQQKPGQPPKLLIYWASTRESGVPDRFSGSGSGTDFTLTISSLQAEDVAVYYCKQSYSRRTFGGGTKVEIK
T27 sequence (VH, as listed by the source, chain 1 of 2): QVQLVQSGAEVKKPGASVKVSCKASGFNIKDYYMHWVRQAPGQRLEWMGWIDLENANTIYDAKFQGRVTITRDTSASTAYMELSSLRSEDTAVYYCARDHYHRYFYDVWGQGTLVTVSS
T27 sequence (VL, as listed by the source, chain 2 of 2): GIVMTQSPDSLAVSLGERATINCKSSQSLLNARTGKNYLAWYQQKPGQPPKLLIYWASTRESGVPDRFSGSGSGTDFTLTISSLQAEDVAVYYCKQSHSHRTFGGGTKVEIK
T26 sequence (VL, as listed by the source, chain 2 of 2): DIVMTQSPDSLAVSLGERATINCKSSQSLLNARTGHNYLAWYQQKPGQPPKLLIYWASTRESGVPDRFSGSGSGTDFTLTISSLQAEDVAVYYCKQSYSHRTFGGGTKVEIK
T22 sequence (VL, as listed by the source, chain 2 of 2): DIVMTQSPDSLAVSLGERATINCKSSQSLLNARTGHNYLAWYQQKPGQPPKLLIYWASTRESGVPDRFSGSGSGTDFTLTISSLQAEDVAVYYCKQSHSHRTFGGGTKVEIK
T4 sequence (VH, as listed by the source limits assumed, chain 1 of 2): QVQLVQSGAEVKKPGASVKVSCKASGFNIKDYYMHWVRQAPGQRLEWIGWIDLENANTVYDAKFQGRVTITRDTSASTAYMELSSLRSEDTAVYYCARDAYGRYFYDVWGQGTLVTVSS
T4 sequence (VL, as listed by the source limits assumed, chain 2 of 2): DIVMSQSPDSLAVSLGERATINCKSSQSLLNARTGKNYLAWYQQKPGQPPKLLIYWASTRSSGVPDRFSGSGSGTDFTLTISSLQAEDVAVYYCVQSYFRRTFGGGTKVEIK
T24 sequence (VH, as listed by the source, chain 1 of 2): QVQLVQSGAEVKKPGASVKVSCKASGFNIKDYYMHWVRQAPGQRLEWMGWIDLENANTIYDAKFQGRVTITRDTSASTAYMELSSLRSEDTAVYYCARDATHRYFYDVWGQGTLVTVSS
T24 sequence (VL, as listed by the source, chain 2 of 2): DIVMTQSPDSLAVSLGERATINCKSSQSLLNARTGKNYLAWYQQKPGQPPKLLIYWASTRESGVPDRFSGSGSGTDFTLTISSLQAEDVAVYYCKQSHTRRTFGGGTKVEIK
T7 sequence (VH, as listed by the source limits assumed, chain 1 of 2): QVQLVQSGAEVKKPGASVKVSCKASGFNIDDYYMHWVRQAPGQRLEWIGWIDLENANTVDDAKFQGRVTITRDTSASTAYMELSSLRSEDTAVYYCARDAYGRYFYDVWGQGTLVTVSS
T17 sequence (VH, as listed by the source, chain 1 of 2): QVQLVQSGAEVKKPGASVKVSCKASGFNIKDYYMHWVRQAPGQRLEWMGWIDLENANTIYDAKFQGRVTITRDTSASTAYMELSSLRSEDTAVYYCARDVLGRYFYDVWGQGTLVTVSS
T33 sequence (VH, as listed by the source, chain 1 of 2): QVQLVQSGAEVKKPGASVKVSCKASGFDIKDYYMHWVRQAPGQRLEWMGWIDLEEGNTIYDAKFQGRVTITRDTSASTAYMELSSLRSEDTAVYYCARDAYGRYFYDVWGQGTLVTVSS
T30 sequence (VH, as listed by the source, chain 1 of 2): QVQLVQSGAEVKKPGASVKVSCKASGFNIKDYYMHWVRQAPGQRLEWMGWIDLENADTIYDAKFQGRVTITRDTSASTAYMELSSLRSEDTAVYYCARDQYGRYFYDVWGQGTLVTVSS
T19 sequence (VH, as listed by the source, chain 1 of 2): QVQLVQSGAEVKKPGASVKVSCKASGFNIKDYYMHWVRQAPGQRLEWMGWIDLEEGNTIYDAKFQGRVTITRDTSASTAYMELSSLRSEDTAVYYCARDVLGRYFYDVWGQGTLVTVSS
T25 sequence (VH, as listed by the source, chain 1 of 2): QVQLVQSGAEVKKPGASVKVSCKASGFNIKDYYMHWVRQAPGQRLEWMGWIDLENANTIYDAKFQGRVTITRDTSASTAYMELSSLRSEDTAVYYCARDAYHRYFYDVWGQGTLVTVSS

Binder	Kd (ADI-50024) [nM]	binding result (ADI-70326)	Kd (ADI-26906 IgG) [nM]	Kd (ADI-67445) [nM]	Kd (ADI-67447) [nM]	Kd (ADI-26909) [nM]	Kd (ADI-26913 IgG) [nM]	Kd (ADI-26916 IgG) [nM]	binding result (ADI-26912)	Kd (ADI-26924) [nM]	Kd (ADI-26943) [nM]	binding result (ADI-48576)	binding result (ADI-48592)	binding result (ADI-48650)	binding result (ADI-74965)	Kd (ADI-74966) [nM]	Kd (ADI-76357) [nM]	Kd (ADI-76360) [nM]	Kd (ADI-76361) [nM]	Kd (ADI-76362) [nM]	other results
B1	0.35	binds	0.16	0.65	0.56	0.9	0.93	0.6	binds	0.2	0.15	binds	binds	binds	binds	0.58	0.57	0.61	0.15	0.82	binding result (CTL-62227): no binding (tested: up to 200 nM); binding result (CTL-62228): no binding (tested: up to 200 nM); binding result (CTL-62240): no binding (tested: up to 200 nM); binding result (ADI-70327): binds; binding result (ADI-70330): binds; binding result (ADI-67450): binds; Kd (ADI-26920 IgG [1]): 0.15 nM; Kd (ADI-26921 IgG [2]): 0.36 nM; binding result (ADI-26915): binds; binding result (ADI-48587): binds; Kd (ADI-74967 [3]): 0.28 nM; binding result (ADI-74968): binds; binding result (ADI-76358): binds; Kd (ADI-76359 [4]): 0.12 nM; Kd (CTL-62223): 0.99 nM; Kd (ADI-22523 IgG): 84.9 nM; Kd (ADI-26919 [5]): 0.044 nM
B2	0.39	binds	0.33	0.37	0.22	0.32	0.3	0.31	binds	0.19	0.17	binds	binds	binds	binds	0.21	0.086	0.082	0.054	0.22	Kd (ADI-70327): 0.95 nM; Kd (ADI-70330): 0.3 nM; Kd (ADI-67450): 0.92 nM; Kd (ADI-26919 [6]): 0.14 nM; Kd (ADI-26915): 14 nM; Kd (ADI-48587): 0.88 nM; Kd (ADI-74968): 0.76 nM; Kd (ADI-76358): 0.96 nM; Kd (CTL-62223): 1.8 nM; Kd (ADI-22523 Fab): 14.8 nM; Kd (ADI-22523 IgG): 0.63 nM; Kd (ADI-26920 IgG [7]): 0.088 nM; Kd (ADI-26921 IgG [8]): 0.048 nM; Kd (ADI-74967 [9]): 0.12 nM; Kd (ADI-76359 [10]): 0.059 nM

Source: patent US20250019439A1 (Adimab, published 2025)
